Experimental data published in patent US20050261190A1.

Biological target: multiubiquitinated proteins (of HEK293T cells)
Test: cell-based or functional assay

Chain of Flag-tagged hFAF1 (human Fas associated factor 1, full form) (Q9UNN5 other isoform, or with tags, fused parts or gaps): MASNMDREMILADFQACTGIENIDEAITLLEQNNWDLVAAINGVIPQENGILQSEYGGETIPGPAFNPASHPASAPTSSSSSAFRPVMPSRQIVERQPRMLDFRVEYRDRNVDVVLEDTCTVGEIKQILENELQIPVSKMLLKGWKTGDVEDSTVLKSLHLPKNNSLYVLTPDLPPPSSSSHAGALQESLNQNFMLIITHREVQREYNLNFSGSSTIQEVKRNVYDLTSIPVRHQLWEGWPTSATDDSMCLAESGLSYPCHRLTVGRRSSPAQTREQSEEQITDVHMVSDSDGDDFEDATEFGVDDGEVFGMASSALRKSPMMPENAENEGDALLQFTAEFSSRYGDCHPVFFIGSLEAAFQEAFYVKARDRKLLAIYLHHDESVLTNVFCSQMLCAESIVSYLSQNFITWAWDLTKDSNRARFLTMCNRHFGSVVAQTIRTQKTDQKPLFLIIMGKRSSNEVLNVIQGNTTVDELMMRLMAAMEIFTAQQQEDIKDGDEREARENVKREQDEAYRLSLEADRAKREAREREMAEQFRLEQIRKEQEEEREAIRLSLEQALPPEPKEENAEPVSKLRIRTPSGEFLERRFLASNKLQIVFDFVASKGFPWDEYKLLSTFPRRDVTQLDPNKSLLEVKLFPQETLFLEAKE

Substance “Flag-tagged hFAF1 (human Fas associated factor 1, full form) (from UniProt Q9UNN5 1-650)” has a mean fluorescence intensity of the Ub^G76V-GFP reporter (flow cytometry) of 2 fold.
